Experimental data: patent US20240174750A1 (VIRTUOSO BINCO, published 2024)

How the values were obtained:
[1] = biological target: T1, CD47 on the surface of CD47+ cells (human, UniProt Q08722 19-323); experiment: flow cytometry, competition with SIRPA-mIgG2a on CD47+ tumor cells; IC50 as grade, legend the 8th table, row 26
T1 construct: whole, on cells; also called CD47+ cell lines; CD47 on Raji cells, HCT-15 cells, human red blood cells (RBCs), human platelets

[2] = biological target: T2, extracellular domain (ECD) of human CD47 (19aa-139aa) with C-terminal 6xHis tag (human, UniProt Q08722 19-139); experiment: ELISA, coated recombinant CD47; EC50 as grade, legend the 6th table, row 26
T2 construct: also called recombinant CD47; recombinant human CD47

[3] = biological target: T1, CD47 on the surface of CD47+ cells; experiment: flow cytometry on CD47+ cell lines; EC50 as grade, legend the 7th table, row 26
[4] = biological target: T2, extracellular domain (ECD) of human …; experiment: SPR, Biacore 8K, antibody captured by anti-human Fc, monomeric CD47 ECD injected, 25 C, 1:1 Langmuir
[5] = biological target: T3, extracellular domain (ECD) of cyno CD47 (4aa-126aa) with C-terminal 6xHis tag (cynomolgus monkey, UniProt Q08722 19-140 (human entry), limits assumed); experiment: ELISA, coated recombinant CD47, FIG. 4A-4B
T3 construct: also called cynomolgus monkey CD47
T3 chain: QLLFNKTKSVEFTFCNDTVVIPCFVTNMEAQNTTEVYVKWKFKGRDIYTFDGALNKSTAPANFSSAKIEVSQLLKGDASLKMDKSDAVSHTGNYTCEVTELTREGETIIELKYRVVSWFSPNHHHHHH

[6] = biological target: T2, extracellular domain (ECD) of human …; experiment: ELISA, coated recombinant CD47, FIG. 4A-4B
[7] = biological target: T2, extracellular domain (ECD) of human …; experiment: ELISA on recombinant human CD47; legend: NB: not bound

B1: R.14G4 (antibody, human IgG1, kappa, V domains shown)
VH: QEQLKESGGGLVTPGGTLTLTCTASGFTITSYHMCWVRQAPGKGLEWIGCIYPNNGFTWYASWAKGRFTISKTSSTTVDLKMTSPTTEEMATYFCARGSGNSYNQLDLWGQGTLVTVSS
VL: AIVMTQTPASVSATLGGSVTINCQSSESVYRDNCLGWFQQKPGQPPKLLIYKASTLASGVPSRFKGSGSGTQFTLTISDVVSDDAATYYCAGYKSTITDGTAFGGGTEVVVKR
notes: Chimeric: rabbit variable domains, human IgG1 and human kappa constant regions
In the case of B1, the IC50 [1] is reported as 1 to 5 nM, the EC50 [2] is reported as greater than 0.5 nM and the EC50 [3] is reported as greater than 5 nM.

B2: R.18B9 (antibody, human IgG1, kappa, V domains shown)
VH: QSLEESGGDLVKPGASLTLTCKASGFSFNSGYMCWVRQAPGKGLEWIACIYAGSSGKTYYASWATGRFTISKTSSTTVTLQMTSLTVADTATYFCARDDGGTYYTDYLYLWGPGTLVTVSS
VL: DVVMTQTPASVEAAVGGTVTIKCQASEGISSYLSWYQQKPGQPPKLLIYKASTLTSGVPSRFKGSGSGTDFTLTISDLESADAATYYCQCTYGSSGSSGYGAAFGGGTEVVVKR
notes: Chimeric: rabbit variable domains, human IgG1 and human kappa constant regions; also called Chimeric antibody 18B9
With B2 the IC50 [1] was 0.1 to 1 nM, the EC50 [2] was 0.01 to 0.1 nM and the EC50 [3] was 0.5 to 5 nM. It also gave a Kd [4] of 10 to 100 nM.

B3: R.15G10 (antibody, human IgG1, kappa, V domains shown)
VH: QSLEESGGRLVTPGTPLTLTCTASGFTISSYHMNWVRQAPGEGLEWIGIIYVGSGNADYASWAKGRFTISKASTTVDLKITSPTTEDTATYFCARGPTNTYPTYFNLWGPGTLVTVSS
VL: AFELTQTPSSVEAAVGGTVTIKCQASRSITSYLAWYQHKPGQPPTLLIYAASNVASGVSSRFKGSRSGTEYTLTISDLESADAATYYCQSYYAISTNTFGGGTEVVVKR
notes: as for B1
For B3, the IC50 [1] was 0.1 to 1 nM, the EC50 [2] was 0.01 to 0.1 nM and the EC50 [3] was 0.5 to 5 nM.

B4: hu.1D15E11-V1 (antibody, human IgG1, kappa, V domains shown)
VH: EVQLVQSGAEVKKPGASVKVSCKASGYTFTSYVMHWVRQAPGQRLEWMGYIDPYNEGTKYNEKFKGRVTITRDTSASTAYMELSSLRSEDTAVYYCSRGGMARRSFDYWGQGTLVTVSS
VL: DIQMTQSPSSLSASVGDRVTITCLASQTIGTWLTWYQQKPGKAPKLLIYAATTLAEGVPSRFSGSGSGTDFTLTISSLQPEDFATYYCQQLYSTPWTFGGGTKVEIKR
notes: Humanised variant of 1D15E11; also called hu.1D15E11-Vi; hu.1D15E11 variants
B4: binds [5]; binds [6].

B5: hu.1D15E11-V3 (antibody, human IgG1, kappa, V domains shown)
VH: EVQLVQSGAEVKKPGASVKVSCKASGYTFTSYVMHWVRQAPGQRLEWMGYIDPYNEGTKYNEKFKGRVTITRDTSASTAYMELSSLRSEDTAVYYCSRGGIARRSFDYWGQGTLVTVSS
VL: DIQMTQSPSSLSASVGDRVTITCLASQTIGTWLTWYQQKPGKAPKLLIYAATTLAEGVPSRFSGSGSGTDFTLTISSLQPEDFATYYCQQLYSTPWTFGGGTKVEIKR
notes: Humanised variant of 1D15E11; also called hu.1D15E11 variants
B5: binds [5]; binds [6].

B6: hu.1D15E11-V2 (antibody, human IgG1, kappa, V domains shown)
VH: EVQLVQSGAEVKKPGASVKVSCKASGYTFTSYVMHWVRQAPGQRLEWMGYIDPYNEGTKYNEKFKGRVTITSDTSASTAYMELSSLRSEDTAVYYCSRGGMARRSFDYWGQGTLVTVSS
VL: DIQMTQSPSSLSASVGDRVTITCLASQTIGTWLTWYQQKPGKAPKLLIYAATTLAEGVPSRFSGSGSGTDFTLTISSLQPEDFATYYCQQLYSTPWTFGGGTKVEIKR
notes: as for B5
B6: binds [5]; binds [6].

B7: hu.1D15E11-V4 (antibody, human IgG1, kappa, V domains shown)
VH: EVQLVQSGAEVKKPGASVKVSCKASGYTFTSYVMHWVRQAPGQRLEWMGYIDPYNEGTKYNEKFKGRVTITRDTSASTAYMELSSLRSEDTAVYYCSRGGVARRSFDYWGQGTLVTVSS
VL: DIQMTQSPSSLSASVGDRVTITCLASQTIGTWLTWYQQKPGKAPKLLIYAATTLAEGVPSRFSGSGSGTDFTLTISSLQPEDFATYYCQQLYSTPWTFGGGTKVEIKR
notes: as for B5
B7: binds [5]; binds [6].

B8: M.1D15E11 (antibody, human IgG1, kappa, V domains shown)
VH: EVQLQQSGPELVKPGAPVKMSCKASGYTFTSYVMHWVKQKPGQGLEWIGYIDPYNDGTKYNEKFKGKATLTSDKSSSTAYMELSSLTSEDSAVYYCSRGGMARRSFDYWGQGTTLTVSS
VL: DIQMTQSPASQSASLGESVTITCLASQTIGTWLTWYQQKPGKSPQLLIYAATTLADGVPSRFSGSGSGTKFSFKISSLQAEDFVSYYCQQLYSTPWTFGGGTKLEIKR
notes: Chimeric: mouse variable domains, human IgG1 and human kappa constant regions; also called Chimeric antibody 1D15E11
For B8, the IC50 [1] was 0.1 to 1 nM, the EC50 [2] was 0.01 to 0.1 nM and the EC50 [3] was 0.1 to 0.5 nM. For the same binder, the Kd [4] was 1 to 10 nM.

B9: hu.18B9.3i HC_D95A (antibody, name in Kabat numbering, V domains shown)
VH: EVQLVESGGGLVQPGGSLRLSCAASGFSFNSGYMSWVRQAPGKGLEWIASIYAGSSGKTYYADWAKGRFTISKTSSKTTVYLQMNSLRAEDTAVYYCARASGGTYYTDYLYLWGQGTLVTVSS
VL: DIQMTQSPSSLSASVGDRVTITCRASEGISSYLSWYQQKPGKAPKLLIYKASTLTSGVPSRFSGSGSGTDFTLTISSLQPEDFATYYCQSTYGSSGSSGYGAAFGGGTKVEIK
notes: Alanine scan variant of hu.18B9.3i; Kabat numbering
B9: no binding [7].

B10: hu.18B9.3i HC_Y101A (antibody, name in Kabat numbering, V domains shown)
VH: EVQLVESGGGLVQPGGSLRLSCAASGFSFNSGYMSWVRQAPGKGLEWIASIYAGSSGKTYYADWAKGRFTISKTSSKTTVYLQMNSLRAEDTAVYYCARDSGGTYYTDYLALWGQGTLVTVSS
VL: DIQMTQSPSSLSASVGDRVTITCRASEGISSYLSWYQQKPGKAPKLLIYKASTLTSGVPSRFSGSGSGTDFTLTISSLQPEDFATYYCQSTYGSSGSSGYGAAFGGGTKVEIK
notes: as for B9
B10: no binding [7].

B11: hu.18B9.3i HC_D100c_A (antibody, V domains shown)
VH: EVQLVESGGGLVQPGGSLRLSCAASGFSFNSGYMSWVRQAPGKGLEWIASIYAGSSGKTYYADWAKGRFTISKTSSKTTVYLQMNSLRAEDTAVYYCARDSGGTYYTAYLYLWGQGTLVTVSS
VL: DIQMTQSPSSLSASVGDRVTITCRASEGISSYLSWYQQKPGKAPKLLIYKASTLTSGVPSRFSGSGSGTDFTLTISSLQPEDFATYYCQSTYGSSGSSGYGAAFGGGTKVEIK
notes: as for B9
B11: no binding [7].

B12: hu.18B9.3i HC_Y100d_A (antibody, V domains shown)
VH: EVQLVESGGGLVQPGGSLRLSCAASGFSFNSGYMSWVRQAPGKGLEWIASIYAGSSGKTYYADWAKGRFTISKTSSKTTVYLQMNSLRAEDTAVYYCARDSGGTYYTDALYLWGQGTLVTVSS
VL: DIQMTQSPSSLSASVGDRVTITCRASEGISSYLSWYQQKPGKAPKLLIYKASTLTSGVPSRFSGSGSGTDFTLTISSLQPEDFATYYCQSTYGSSGSSGYGAAFGGGTKVEIK
notes: as for B9
B12: no binding [7].

B13: hu.18B9.3i HC_G97A (antibody, name in Kabat numbering, V domains shown)
VH: EVQLVESGGGLVQPGGSLRLSCAASGFSFNSGYMSWVRQAPGKGLEWIASIYAGSSGKTYYADWAKGRFTISKTSSKTTVYLQMNSLRAEDTAVYYCARDSAGTYYTDYLYLWGQGTLVTVSS
VL: DIQMTQSPSSLSASVGDRVTITCRASEGISSYLSWYQQKPGKAPKLLIYKASTLTSGVPSRFSGSGSGTDFTLTISSLQPEDFATYYCQSTYGSSGSSGYGAAFGGGTKVEIK
notes: as for B9
B13: no binding [7].

B14: hu.18B9.3i HC_G98A (antibody, name in Kabat numbering, V domains shown)
VH: EVQLVESGGGLVQPGGSLRLSCAASGFSFNSGYMSWVRQAPGKGLEWIASIYAGSSGKTYYADWAKGRFTISKTSSKTTVYLQMNSLRAEDTAVYYCARDSGATYYTDYLYLWGQGTLVTVSS
VL: DIQMTQSPSSLSASVGDRVTITCRASEGISSYLSWYQQKPGKAPKLLIYKASTLTSGVPSRFSGSGSGTDFTLTISSLQPEDFATYYCQSTYGSSGSSGYGAAFGGGTKVEIK
notes: as for B9
B14: no binding [7].
